Test results from patent publication US20180280504A1, “GLYCAN-INTERACTING COMPOUNDS AND METHODS OF USE” (SIAMAB THERAPEUTICS, INC., priority 2014, published 2018).

Tests used:
[1] = tested on: STn on bovine submaxillary mucin (BSM); assay: Anti-STn BSM ELISA, non-treated and periodate-treated wells; format: binding; settings: for hybridoma screening: specificity for STn: BSM ELISA without and after periodate treatment
Protocol: Anti-STn serum titer is determined using a murine anti-STn bovine submaxillary mucin (BSM) ELISA together with serum profiles observed by glycan microarray. 96-well plates are coated with 1 μg/well of BSM and incubated overnight at 4° C. O-acetylation of BSM antigen is removed by treating wells with 0.1 M sodium hydroxide. Specific binding to STn is determined by treatment of wells with sodium periodate. Periodate treatment destroys the […] side chain of sialic acid; therefore antibodies raised against STn should not bind to periodate-treated wells. Wells are blocked with PBS 1% ovalbumin (OVA). Serum samples to be assayed are serially diluted in PBS 1% OVA. A commercially available mouse anti-STn monoclonal antibody, 3F1 (SBH Sciences, Natick, Mass.) is used as a positive control. This antibody is also serially diluted in PBS with 1% OVA. A pool of serum from naïve wild type mice is used for the preparation of negative control samples. Detection of anti-STn antibodies present in serum is determined using an HRP-conjugated polyclonal goat anti-mouse IgG antibody (Jackson Immunoresearch, West Grove, Pa.). The reaction is stopped by addition of sulfuric acid (1.6 M). Optical densities are measured at 490 nm using a Spectramax microplate reader (Molecular Devices, Sunnyvale, Calif.). The serum titer is obtained by comparison of OD values with a cutoff value calculated as two standard deviations above the mean of optical density values of the negative control. Sample tests are considered positive if the mean optical density value is greater than the cutoff value.
Binding affinities of 18D2 and 18C7 to STn were compared to commercially available anti-STn antibodies using the BSM ELISA assay described in Example 2. Commercial anti-STn antibodies used for comparison included 3F1 (SBH Sciences, Natick, Mass.,) TAG-72 clone B72.3 (Thermo Fisher Scientific, Waltham, Mass.,) TAG-72 clone CC49 (Santa Cruz Biotechnology, Santa Cruz, Calif.) as well as a negative control antibody against c-myc (Thermo Fisher Scientific, Waltham, Mass.). Each antibody was titrated using a 7-point, 1:5 serial dilution starting from 100 nM. Titrated antibodies were added to BSM ELISA plates containing wells that were non-treated or treated with sodium periodate. Antibody binding was determined using HRP-conjugated polyclonal goat anti-mouse IgG antibody (Jackson Immunoresearch Laboratories, West Grove, Pa.). The reaction was developed using an HRP substrate and stopped with 1.6 M sulfuric acid. Optical densities were measured at 490 nm using a Spectramax microplate reader. […] The half maximal effective concentration (EC50) for each antibody was calculated using a non-linear regression analysis carried out on periodate subtracted data.

MDA-MD-231 STn cells = assay: Antibody internalization by fluorescence microscopy cell counts, STn+ cells; format: cell-based, human; settings: for Net cell counts of cells showing positive internalization: 10 μg/ml antibody
Protocol: 6-well culture dishes were prepared with collagen-coated coverslips in the center of 4 wells of each dish. Wells were seeded with either 10^5 cells/well of MDA-MD-231 cells or with 10^6 cells/well of MDA-MD-231 STn cells (expressing STn) and cultured for 24 hours.
10 μg/ml antibody solutions were prepared in cell culture media. A separate solution was prepared for each of LA22 antibody (EMD Millipore, Burlington, Mass.) as a positive control for cell surface binding, S3F antibody (internal reagent) as a positive control for STn binding, 8C11, 2D4, 7G9, 10A5 and GB26.16 (QED Bioscience, San Diego, Calif.) as a negative control. Media were removed from wells and 100 μl of each antibody solution was added to separate coverslips. Coverslips were covered with parafilm and incubated for 30 minutes at 4° C. to allow antibody binding. Antibody solutions were removed by washing and fresh media was added to each well. Cells were incubated at 37° C. for 15, 30, 60 or 240 min to allow for antibody internalization.
After incubation, cells were prepared for microscopy. Cells were washed with PBS and fixed with paraformaldehyde fixation buffer (PFA) containing 3% paraformaldehyde and 2% sucrose in PBS for 15 minutes at room temperature. Cells were rinsed again in PBS and treated with blocking buffer made up of PBS with 1% bovine serum albumin (BSA) or with permeabilization buffer made up of blocking buffer with 0.1% TX-100. Cells were incubated in for 30 min at room temperature, rinsed in PBS and treated with secondary antibody (ALEXA FLUOR® 488-labeled goat-anti-mouse IgG) for 2 hours at room temperature. Cells were rinsed again in PBS and treated with DAPI nuclear stain for 5 min at room temperature in the dark. Cells were rinsed again in PBS and mounted for fluorescence microscopy.

OV-90 cells = assay: Cell viability assay with secondary antibody-drug conjugate (2° ADC), OV-90; format: cell-based; settings: with 2° ADC Fab αMFc-CL-MMAF
Protocol: Cell viability assays are performed to screen anti-STn antibodies of the present invention in the presence and absence of secondary antibody-drug conjugates (2° ADCs). The purpose of the screen is to identify the ability of each anti-STn antibody to inhibit cell growth. Antibodies with potent cell growth inhibition are used to design direct antibody-drug conjugates (ADCs). Using such secondary antibody-drug conjugates (2° ADCs) in cell-based cytotoxic assays can quickly pre-screen many ADC candidates against tumor cells. Based on the assay, a naked antibody candidate is directly added to cells in the presence of a 2° ADC. Internalization of the mAb/2° ADC complex into cells that express a high density of the targeted antigen can achieve a dose-dependent drug release within the cells, causing a cytotoxic effect to kill the cells (e.g., tumor cells), while cells expressing a low density of the targeted antigen are not affected (e.g., normal cells).
To perform cell viability assays, cell lines described in the present application (MDA-MB-231 parental, MDA-MB-231-STn+, and OV-90) are prepared and cultured for the assays. The cell culture is optimized for cell density by plating different densities of cells (e.g., 2,000, 4,000 and 7,500 per well) on a 96-well plate and observing the cell growth for 96 hours. The plating condition in which cells reach around 90% confluence at the end of the 96 hours is identified and the optimal cell number is then used in the final viability assay.
Duplicate or triplicate cell plates for each cell line are used for testing each antibody candidate.
For cell viability assays, data points are collected for each antibody candidate with duplicates for each data point. […]
Cell viabilities are measured by Cell-Titer Glo luminescence based assays.
Three anti-STn monoclonal antibodies (anti-STn antibodies S3F, 7G9 and 2D4) and an anti-EGFR monoclonal antibody LA22 were tested for internalization. […] Cell viability was then measured using CellTitreGlo Luminescent Cell Viability Assay (Promega, Madison, Wis.).

Row | Molecule | hybridoma screening: specificity for STn [1] | Net cell counts of cells showing positive internalization (MDA-MD-231 STn cells; 15 min at 37° C.) | Net cell counts of cells showing positive internalization (MDA-MD-231 STn cells; 30 min at 37° C.) | Net cell counts of cells showing positive internalization (MDA-MD-231 STn cells; 60 min at 37° C.) | Net cell counts of cells showing positive internalization (MDA-MD-231 STn cells; 4 hr at 37° C.) | Net cell counts of cells showing positive internalization (MDA-MD-231 STn cells; 4 hr, no perm) | level of internalization (comparison of antibodies) (MDA-MD-231 STn cells; microscopy) | binding to non-treated wells ([1]; BSM ELISA, wells not treated with sodium periodate) | binding to periodate-treated wells ([1]; BSM ELISA, wells treated with sodium periodate) | EC50 ([1]; non-linear regression on periodate subtracted data, 7-point 1:5 dilution from 100 nM) | activity in OV-90 cells (OV-90 cells)
1 | 10A5: anti-STn mouse monoclonal, IgG2c κ, from mouse #4406; VH SEQ ID NO: 6, VL SEQ ID NO: 7 (antibody, V domains shown) VH: QVQLKESGPGLVAPSQSLSITCTVSGFSLTSYGVSWVRQPPGKGLEWLGVIWGDGSTNYHSSLISRLSISKDNSKSQVFLKLNSLQTDDTATYYCARAFVYWGQGTLVTVSA VL: QIVLTQSPAIMSASPGEKVTMTCSASSSVSYIHWYQQKSGTSPKRWIYDTSKLASGVPARFSGSGSGTSYSLTISSMEAEDAATYYCQQWSSNPPMLTFGAGTKLELK | specific for STn | 267 | 346 | 75 | 93 | 97 |  |  |  |  | 
2 | 8C11: anti-STn mouse monoclonal, IgG2b κ, from mouse #4407; VH SEQ ID NO: 8, VL SEQ ID NO: 9 (antibody, V domains shown) VH: QVQLKESGPGLVAPSQSLSITCTVSGFSLTSYGVSWVRQPPGKGLEWLGVIWGDGSTNYHSALISRLIISKDNSKSQVFLKLNSLQTDDTATYYCTKGFTYWGQGTLVTVSA VL: QIVLTQSPAIMSASPGEKVTMTCSASSSVSYMHWYQQKSGTSPKRWIFDTSKLASGVPARFSGSGSGTSYSLTISSMEAEDAATYYCQQWSSNLLTFGAGTKLELK | specific for STn | 934 | 297 | 122 | 49 | 160 | greatest levels of internalization |  |  |  | 
3 | 18C7: anti-STn mouse monoclonal, IgG2c κ, from mouse #4436; VH SEQ ID NO: 4, VL SEQ ID NO: 5 (antibody, V domains shown) VH: QVTLKESGPGILQPSQTLSLTCSFSGFSLSTFGMGVGWIRQPSGKGLEWLAHIWWDDDKYYNPALKSRLTISKDTSKNQVFLKIANVDTADTATYYCARIAYYYGSERDYWGQGTTLTVSS VL: QIVLTQSPAIMSASPGEKVTMTCSASSSISYMHWYHQKPGTSPKRWIYDTSKLASGVPARFSGSGSGTSYSLTISSMEAEDAATYYCHQRSSYTFGGGTKLEIKR | specific for STn |  |  |  |  |  |  | bound non-treated wells | did not bind to periodate-treated wells | 62.5 nM | 
4 | S3F: 3F1 variable domains combined with IgG2a constant domains; heavy chain SEQ ID NO: 63, light chain SEQ ID NO: 64 (antibody) heavy: QVQLQQSDAELVKPGASVKISCKASGYTFTDHAIHWVKQKPEQGLDWIGYISPGNGDIKYNEKFKDKVTLTADKSSSTACMHLNSLTSEDSAVYFCKRSLLALDYWGQGTTLTVSSAKTTAPSVYPLAPVCGDTTGSSVTLGCLVKGYFPEPVTLTWNSGSLSSGVHTFPAVLQSDLYTLSSSVTVTSSTWPSQSITCNVAHPASSTKVDKKIEPRGPTIKPCPPCKCPAPNLLGGPSVFIFPPKIKDVLMISLSPIVTCVVVDVSEDDPDVQISWFVNNVEVHTAQTQTHREDYNSTLRVVSALPIQHQDWMSGKEFKCKVNNKDLPAPIERTISKPKGSVRAPQVYVLPPPEEEMTKKQVTLTCMVTDFMPEDIYVEWTNNGKTELNYKNTEPVLDSDGSYFMYSKLRVEKKNWVERNSYSCSVVHEGLHNHHTTKSFSRTPGK light: DIVMTQSHKFMSTSVGDRVSITCKASQDVGTNIAWYQQKPGRSPKVLIYSASTRHTGVPDRFTGSGSGTDFTLTISNVQSEDLTDYFCQQYSSFPLTFGVGTKLELKRADAAPTVSIFPPSSEQLTSGGASVVCFLNNFYPKDINVKWKIDGSERQNGVLNSWTDQDSKDSTYSMSSTLTLTKDEYERHNSYTCEATHKTSTSPIVKSFNRNEC |  | 426 | 410 | 350 | 259 | 276 |  |  |  |  | modest activity
